Measured values reported in US8097440B1, “Engineered microorganisms capable of producing target compounds under anaerobic conditions” (Gevo, Inc., priority 2008, dated 2012).

Key:
[1] = system: Lactococcus lactis alcohol dehydrogenase Ll_AdhA, SEQ ID NO: 67; details: NADH as cofactor; cited from earlier work
[2] = substrate: NC(=O)C1=CN([C@@H]2O[C@H](COP(=O)(O)OP(=O)(O)OC[C@H]3O[C@@H](n4cnc5c(N)ncnc54)[C@H](O)[C@@H]3O)[C@@H](O)[C@H]2O)C=CC1; experiment: KARI cuvette assay, purified Ec_IlvC^B8-his6; type: biochemical, E. coli
Procedure: (§1) KARI cuvette assay: KARI activity was assayed kinetically by monitoring the decrease in NAD(P)H concentration by measuring the absorbance at 340 nm. A reaction buffer was prepared containing 250 mM potassium phosphate pH 7, 1 mM DTT and 10 mM MgCl2. Cell pellets were resuspended (0.25 g wet weight/mL buffer) in 250 mM potassium phosphate (KPi) buffer containing 1 mM DTT and 10 mM MgCl2. The resuspended cells were lysed by sonication for 1 min with a 50% duty cycle and pelleted at 11000×g and 4° C. for 15 min. A reaction mixture consisting of 910 μl reaction buffer, 50 μl acetolactate, and 20 μl lysate was prepared in a cuvette. The reaction was initiated by addition of 20 μL of 10 mM NAD(P)H. A substrate free control was conducted using reaction buffer without the addition of acetolactate.
(§2) Purification of KARI: Cell pellets used for purification were resuspended in purification buffer A (20 mM Tris, 20 mM imidazol, 100 mM NaCl, 10 mM MgCl2, pH 7.4). KARI was purified by IMAC (Immobilized metal affinity chromatography) over a 1 ml Histrap High Performance (histrap HP) column pre-charged with Nickel (GE Healthcare) using an Akta FPLC system (GE Healthcare). The column was equilibrated with four column volumes (cv) of buffer A. After injecting the crude extract, the column was washed with buffer A for 2 cv, followed by a wash step with a mixture of 10% elution buffer B (20 mM Tris, 300 mM imidazol, 100 mM NaCl, 10 mM MgCl2, pH 7.4) for 5 cv. KARI variants were eluted at 40% buffer B and stored at 4° C.
(§3) As a next step, the gene encoding variant Ec_llvC^Q110V-his6 (SEQ ID NO: 23) was used as template to generate individual combinations of the mutation Q110V with other mutations: R68L, A71T, A71S, R76G, R76S, R76T, S78D, and R76D. After screening the variants as described above, the most promising ones were expressed, purified, and characterized. Table 29 lists the KM values in μM on NADPH and NADH for Ec_llvC^his6, Ec_llvC^Q110V-his6, and variants of Ec_llvC^Q110V-his6. […] The A71S mutation was introduced into Ec_llvC^B8-his6 resulting in a variant Ec_llvC^B8A71S-his6, which yielded 44% catalytic efficiency on NADH compared to the catalytic efficiency of wild-type KARI on NADPH (FIG. 19 and Table 30).

[3] = substrate: NC(=O)C1=CN([C@@H]2O[C@H](COP(=O)(O)OP(=O)(O)OC[C@H]3O[C@@H](n4cnc5c(N)ncnc54)[C@H](OP(=O)(O)O)[C@@H]3O)[C@@H](O)[C@H]2O)C=CC1; experiment: KARI cuvette assay, purified Ec_IlvC^B8-his6; type: biochemical, E. coli; details: other: purified; acetolactate as substrate
Procedure: as §1, §2, §3

[4] = substrate: NC(=O)C1=CN([C@@H]2O[C@H](COP(=O)(O)OP(=O)(O)OC[C@H]3O[C@@H](n4cnc5c(N)ncnc54)[C@H](O)[C@@H]3O)[C@@H](O)[C@H]2O)C=CC1; experiment: KARI assay, purified Ec_IlvC^6E6-his6; type: biochemical, E. coli; details: 30.0 °C
Procedure: as §1, §2
(§4) Only 20% of the enzymes of the recombination library were active on NADH. After screening 1,000 clones using the NADH depletion assay at 340 nm, 26 KARI variants were selected for a rescreen by the high-throughput assay described in Example 14 and eight thereof were expressed in 25 ml LBamp medium in shake flasks according to the protocol for cell growth and protein expression in shake flasks as described in Example 14, purified according to the protocol for purification of KARI enzymes as described in Example 14, and NAD(P)H depletion at 340 nm was measured again. […] The KM values of variants Ec_llvC^2H10-his6 and Ec_llvC^6E6-his6 were measured and the catalytic efficiencies were calculated.
(§5) Improved variants were expressed and purified from GEVO1186. 20 mL SC-URA medium overnight cultures were grown at 30° C. and 250 rpm in 250 mL flasks and were then used to inoculate 96 well deep well plates on the next morning. 50 μL of the overnight cultures were transferred into 600 μL SC-URA medium per well. The plates were then grown at 30° C. and 250 rpm in a humidified plate shaker for 8 h. In order to the harvest, the cultures were transferred into 50 mL Falcon tubes and then spun down at 4° C. and 5,000 rpm for 10 min. The pellets were frozen until they were processed and purified as described in Example 14 above.

[5] = substrate: NC(=O)C1=CN([C@@H]2O[C@H](COP(=O)(O)OP(=O)(O)OC[C@H]3O[C@@H](n4cnc5c(N)ncnc54)[C@H](OP(=O)(O)O)[C@@H]3O)[C@@H](O)[C@H]2O)C=CC1; experiment: KARI assay, purified Ec_IlvC^6E6-his6; type: biochemical, E. coli; details: other: Example 15, expressed in E. coli BL21(DE3), purified; 30.0 °C
Procedure: as §1, §2, §4, §5

[6] = substrate: NC(=O)C1=CN([C@@H]2O[C@H](COP(=O)(O)OP(=O)(O)OC[C@H]3O[C@@H](n4cnc5c(N)ncnc54)[C@H](O)[C@@H]3O)[C@@H](O)[C@H]2O)C=CC1; experiment: KARI cuvette assay, purified Ec_IlvC^his6 (parent / wild type); type: biochemical, E. coli
Procedure: as §1, §2
(§6) The three best variants Ec_llvC^S78D-his6, Ec_llvC^Q110A-his6, and Ec_llvC^Q110V-his6 were characterized according to their specific activities [U/mg], kcat values [s^−1], catalytic efficiencies [M^−1*s^−1] (FIG. 18), and KM values (Table 27).
as §4

[7] = substrate: NC(=O)C1=CN([C@@H]2O[C@H](COP(=O)(O)OP(=O)(O)OC[C@H]3O[C@@H](n4cnc5c(N)ncnc54)[C@H](OP(=O)(O)O)[C@@H]3O)[C@@H](O)[C@H]2O)C=CC1; experiment: as above; type: biochemical, E. coli; details: other: purified; acetolactate as substrate
Procedure: as §1, §2, §6, §4

[8] = substrate: NC(=O)C1=CN([C@@H]2O[C@H](COP(=O)(O)OP(=O)(O)OC[C@H]3O[C@@H](n4cnc5c(N)ncnc54)[C@H](O)[C@@H]3O)[C@@H](O)[C@H]2O)C=CC1; experiment: KARI assay, purified Ec_IlvC^2H10-his6; type: biochemical, E. coli; details: other: purified; acetolactate as substrate
Procedure: as §1, §2, §4

[9] = substrate: NC(=O)C1=CN([C@@H]2O[C@H](COP(=O)(O)OP(=O)(O)OC[C@H]3O[C@@H](n4cnc5c(N)ncnc54)[C@H](OP(=O)(O)O)[C@@H]3O)[C@@H](O)[C@H]2O)C=CC1; experiment: KARI assay, purified Ec_IlvC^2H10-his6; type: biochemical, E. coli; details: other: purified; acetolactate as substrate
Procedure: as §1, §2, §4

[10] = other: purified, acetolactate as substrate
[11] = other: Example 15, expressed in E. coli BL21(DE3), purified
[12] = other: Example 16, expressed in yeast GEVO1186, purified

Molecule: CC(C)C=O [isobutyraldehyde]
- Km [1]: 9100 µM
- kcat [1]: 6.6 s⁻¹

Molecule: CC=O [Acetaldehyde]
- Km [1]: 500 µM
- kcat [1]: 10 s⁻¹

B1: E. coli KARI Ec_IlvC variant Ec_IlvC^B8-his6 (Q110V, S78D), SEQ ID NO: 27 (Escherichia coli K-12; Q110V/S78D) (protein)
chain: MANYFNTLNLRQQLAQLGKCRFMGRDEFADGASYLQGKKVVIVGCGAQGLNQGLNMRDSGLDISYALRKEAIAEKRADWRKATENGFKVGTYEELIPQADLVINLTPDKVHSDVVRTVQPLMKDGAALGYSHGFNIVEVGEQIRKDITVVMVAPKCPGTEVREEYKRGFGVPTLIAVHPENDPKGEGMAIAKAWAAATGGHRAGVLESSFVAEVKSDLMGEQTILCGMLQAGSLLCFDKLVEEGTDPAYAEKLIQFGWETITEALKQGGITLMMDRLSNPAKLRAYALSEQLKEIMAPLFQKHMDDIISGEFSSGMMADWANDDKKLLTWREETGKTAFETAPQYEGKIGEQEYFDKGVLMIAMVKAGVELAFETMVDSGIIEESAYYESLHELPLIANTIARKRLYEMNVVISDTAEYGNYLFSYACVPLLKPFMAELQPGDLGKAIPEGAVDNGQLRDVNEAIRSHAIEQVGKKLRGYMTDMKRIAVAGLEHHHHHH
- Km [2, 10]: 65 µM
- kcat [2, 10]: 2.0 s⁻¹
- kcat/Km [2, 10]: 31,775 M^−1 * s^−1
- kcat/Km ([2]; with NADH): 34200 M⁻¹ s⁻¹
- Km [3]: 65 µM
- kcat [3]: 2.2 s⁻¹
- kcat/Km [3]: 34,188 M^−1 * s^−1

B2: E. coli KARI Ec_IlvC variant Ec_IlvC^6E6-his6 (A71S, R76D, S78D, Q110V), SEQ ID NO: 34 (Escherichia coli K-12; A71S/Q110V/R76D/S78D) (protein)
chain: MANYFNTLNLRQQLAQLGKCRFMGRDEFADGASYLQGKKVVIVGCGAQGLNQGLNMRDSGLDISYALRKESIAEKDADWRKATENGFKVGTYEELIPQADLVINLTPDKVHSDVVRTVQPLMKDGAALGYSHGFNIVEVGEQIRKDITVVMVAPKCPGTEVREEYKRGFGVPTLIAVHPENDPKGEGMAIAKAWAAATGGHRAGVLESSFVAEVKSDLMGEQTILCGMLQAGSLLCFDKLVEEGTDPAYAEKLIQFGWETITEALKQGGITLMMDRLSNPAKLRAYALSEQLKEIMAPLFQKHMDDIISGEFSSGMMADWANDDKKLLTWREETGKTAFETAPQYEGKIGEQEYFDKGVLMIAMVKAGVELAFETMVDSGIIEESAYYESLHELPLIANTIARKRLYEMNVVISDTAEYGNYLFSYACVPLLKPFMAELQPGDLGKAIPEGAVDNGQLRDVNEAIRSHAIEQVGKKLRGYMTDMKRIAVAGLEHHHHHH
notes: T37 values cited for the gene on pGV1975
- Km [4, 11]: 31.6 µM
- kcat [4, 11]: 2.3 s⁻¹
- kcat/Km [4, 11]: 74045 M⁻¹ s⁻¹
- Km [4, 12]: 39 µM
- kcat [4, 12]: 2.4 s⁻¹
- kcat/Km [4, 12]: 63,000 M^−1 * S^−1
- Km [5]: 653 µM
- kcat [5]: 0.2 s⁻¹
- kcat/Km [5]: 386 M⁻¹ s⁻¹

B3: Escherichia coli KARI (ketol-acid reductoisomerase) Ec_IlvC^his6, wild type IlvC (SEQ ID NO: 13) with his6-tag, SEQ ID NO: 15 (Escherichia coli K-12) (protein)
chain: MANYFNTLNLRQQLAQLGKCRFMGRDEFADGASYLQGKKVVIVGCGAQGLNQGLNMRDSGLDISYALRKEAIAEKRASWRKATENGFKVGTYEELIPQADLVINLTPDKQHSDVVRTVQPLMKDGAALGYSHGFNIVEVGEQIRKDITVVMVAPKCPGTEVREEYKRGFGVPTLIAVHPENDPKGEGMAIAKAWAAATGGHRAGVLESSFVAEVKSDLMGEQTILCGMLQAGSLLCFDKLVEEGTDPAYAEKLIQFGWETITEALKQGGITLMMDRLSNPAKLRAYALSEQLKEIMAPLFQKHMDDIISGEFSSGMMADWANDDKKLLTWREETGKTAFETAPQYEGKIGEQEYFDKGVLMIAMVKAGVELAFETMVDSGIIEESAYYESLHELPLIANTIARKRLYEMNVVISDTAEYGNYLFSYACVPLLKPFMAELQPGDLGKAIPEGAVDNGQLRDVNEAIRSHAIEQVGKKLRGYMTDMKRIAVAGLEHHHHHH
- Km [6, 10]: 1,075 μM
- kcat [6, 10]: 1.0 s⁻¹
- kcat/Km [6, 10]: 1,000 M^−1 * s^−1
- kcat/Km ([6]; with NADH): 87300 M⁻¹ s⁻¹
- Km [7]: 41 µM
- kcat [7]: 3.6 s⁻¹
- kcat/Km [7]: 87300 M⁻¹ s⁻¹

B4: E. coli KARI Ec_IlvC variant Ec_IlvC^2H10-his6 (A71S, R76D, S78D, Q110A), SEQ ID NO: 31 (Escherichia coli K-12; A71S/Q110A/R76D/S78D) (protein)
chain: MANYFNTLNLRQQLAQLGKCRFMGRDEFADGASYLQGKKVVIVGCGAQGLNQGLNMRDSGLDISYALRKESIAEKDADWRKATENGFKVGTYEELIPQADLVINLTPDKAHSDVVRTVQPLMKDGAALGYSHGFNIVEVGEQIRKDITVVMVAPKCPGTEVREEYKRGFGVPTLIAVHPENDPKGEGMAIAKAWAAATGGHRAGVLESSFVAEVKSDLMGEQTILCGMLQAGSLLCFDKLVEEGTDPAYAEKLIQFGWETITEALKQGGITLMMDRLSNPAKLRAYALSEQLKEIMAPLFQKHMDDIISGEFSSGMMADWANDDKKLLTWREETGKTAFETAPQYEGKIGEQEYFDKGVLMIAMVKAGVELAFETMVDSGIIEESAYYESLHELPLIANTIARKRLYEMNVVISDTAEYGNYLFSYACVPLLKPFMAELQPGDLGKAIPEGAVDNGQLRDVNEAIRSHAIEQVGKKLRGYMTDMKRIAVAGLEHHHHHH
notes: T37 values cited for the gene on pGV1976
- Km [8]: 44.2 µM
- kcat [8]: 2.6 s⁻¹
- kcat/Km [8]: 60322 M⁻¹ s⁻¹
- Km [9]: 568 µM
- kcat [9]: 0.61 s⁻¹
- kcat/Km [9]: 1,078 M^−1 * s^−1
